Results reported in PMC3493473.

Assays:
[1] = target: full length ROP18 (ROP18-FL), recombinant (Toxoplasma gondii (type I RH strain))
[2] = target: T1, ROP18-kinase domain (ROP18-KD) (Toxoplasma gondii) (UniProt Q2PAY2)
T1 sequence: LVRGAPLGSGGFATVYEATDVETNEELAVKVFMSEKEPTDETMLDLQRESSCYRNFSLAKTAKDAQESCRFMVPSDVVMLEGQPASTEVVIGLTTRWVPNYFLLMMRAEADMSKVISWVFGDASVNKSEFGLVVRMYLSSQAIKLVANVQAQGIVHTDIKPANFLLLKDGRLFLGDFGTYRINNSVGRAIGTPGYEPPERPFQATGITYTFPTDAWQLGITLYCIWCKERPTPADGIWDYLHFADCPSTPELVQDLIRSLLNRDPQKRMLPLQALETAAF

## recombinant ROP5 (rROP5) (from UniProt F2YGR7 25-549) (natural protein)
[1]
  in vitro 32P kinase activity of ROP18-FL (25 ng) on immunoprecipitated Irgb6 with against without rROP5 (50 ng), fold increase (Figure 5F): 12 fold
[2]
  in vitro 32P kinase activity of ROP18-KD (100 ng) on dMBP with against without rROP5 (200 ng), fold increase (Figure 5E): 12 fold
